Data published in US12077763B2, “RNA-based control of powdery mildew” (Greenlight Biosciences, Inc., priority 2021, dated 2024).

System: E. necator
Assay: Leaf disc assay, dry inoculum (settling tower), decrease in disease severity / hyphal growth (Example 2)
Conditions: decrease in disease severity (hyphal growth) relative to untreated control, value ± SE; for % decrease =/− SE TP1: time point 1 (untreated control hyphal growth ≥50%); for % decrease =/− SE TP2: time point 2

Row | Molecule | % decrease =/− SE TP1 [%] | % decrease =/− SE TP2 [%]
1 | GS3935 (nucleic acid) sense: CACCGCAGGAAACAACACGAGUAAAAUCAUUUUCUUCAACAACAUCUUCUGCAGCAAAAAAAUUUUCUCGUGCACUCUUAUGGCGGUCAAUUUGUAGAGAUUGCUCAUCGAAGACAAUCUGACCAUCAACGAUGCGAAUUUUAGGACCAACCGGAGGAGCAGACGGCGGUGCGAUUUGGCUAUUUAAACUUGGCUCAGUCUUUCUACUUUCAUUUAGGGUAUAAUUGUCACCACUUUUUCCAUCUAUAUAAUCUUCAAGUUCAGGGUUAUCUCGCUUCAUCCUAGCUUUGAUAGCAUUUUGUUUCAUUCGUGCAAGUCGUCCCAUUAUCUCAUCGUGGUUUCUAGACUUUUUACCAAUACGAAGAUCAUGACAUAAGUCUUGCAUGGUAAUAACAGAA antisense: UUCUGUUAUUACCAUGCAAGACUUAUGUCAUGAUCUUCGUAUUGGUAAAAAGUCUAGAAACCACGAUGAGAUAAUGGGACGACUUGCACGAAUGAAACAAAAUGCUAUCAAAGCUAGGAUGAAGCGAGAUAACCCUGAACUUGAAGAUUAUAUAGAUGGAAAAAGUGGUGACAAUUAUACCCUAAAUGAAAGUAGAAAGACUGAGCCAAGUUUAAAUAGCCAAAUCGCACCGCCGUCUGCUCCUCCGGUUGGUCCUAAAAUUCGCAUCGUUGAUGGUCAGAUUGUCUUCGAUGAGCAAUCUCUACAAAUUGACCGCCAUAAGAGUGCACGAGAAAAUUUUUUUGCUGCAGAAGAUGUUGUUGAAGAAAAUGAUUUUACUCGUGUUGUUUCCUGCGGUG | 1 ± 5 | –
2 | GS3929 (nucleic acid) sense: AUUGUUGAUAAGUUCACUGGAAAUCUCCGUUAUAGGAUCUAUUCCUUCAUUUUGUUUCCGGAGUUUUUCUUCUUGUCGAGCACUCAUUUUGGUAGAGAAUGCCCAACAUGAAAGGCCCAAUUCGCGACAUACUAUGCACACAUCUAGACGAGGCGCAGUUUUGUCUUUCGUUAUCGCAAUUCCAAUGCAACGACGACAUUGUAAGACAAAAUUCUCAUGACCAAUUUUAGUAACCAAGUGAUCUCUGUUACUUCGAGGACCAAGACAAUUUUUGUGGAUUGAAGUUGAGCAUCCUUGACAGUAAAUAAGUUGGCUUGGGCCCUUGUUCGAAUUUCUCUCAUUUCCAAAGCAAACAUCACAAAAUUUAUUAUGAAAACUUCGAAAUAAAUUUU antisense: AAAAUUUAUUUCGAAGUUUUCAUAAUAAAUUUUGUGAUGUUUGCUUUGGAAAUGAGAGAAAUUCGAACAAGGGCCCAAGCCAACUUAUUUACUGUCAAGGAUGCUCAACUUCAAUCCACAAAAAUUGUCUUGGUCCUCGAAGUAACAGAGAUCACUUGGUUACUAAAAUUGGUCAUGAGAAUUUUGUCUUACAAUGUCGUCGUUGCAUUGGAAUUGCGAUAACGAAAGACAAAACUGCGCCUCGUCUAGAUGUGUGCAUAGUAUGUCGCGAAUUGGGCCUUUCAUGUUGGGCAUUCUCUACCAAAAUGAGUGCUCGACAAGAAGAAAAACUCCGGAAACAAAAUGAAGGAAUAGAUCCUAUAACGGAGAUUUCCAGUGAACUUAUCAACAAU | – | 19 ± 7
3 | GS3931 (nucleic acid) sense: AUCAAUUUUUCAUUCUCCCUAAUAGAUUUGAUAUCCCGUUCUUUGAGAUAACUUAAUUCCUCUUUUAUGUCUUUUAGCUUUUUUUCUGCAGUCGCAAUUAGAGUCUCUUUUUCAGCAAUUUGAUCUUGAAGCUCAUUUUCUCUUUUUAAAAACUCUUCACGAUCAUCUUUUUCUAAUGCAAUUGGCGUAGAUGAGCGAUCUAAUAACGUUGAAGCUUCCGAUCUAGAUUCUACCUGCAGCCUAGAAGGAGUUGCAGGUCUUGGUGUUUUUAUUUUAGAAAGAUUAGCAGUAUCUAAAGGUGGUACCCAUUUUUCUUUAGGCACACUAUCUCCAGACCUCCACUGCUGAACUUCUGCAUCAAGUGUCUGUACAUAUUGUUCAAAUGUAGUAA antisense: UUACUACAUUUGAACAAUAUGUACAGACACUUGAUGCAGAAGUUCAGCAGUGGAGGUCUGGAGAUAGUGUGCCUAAAGAAAAAUGGGUACCACCUUUAGAUACUGCUAAUCUUUCUAAAAUAAAAACACCAAGACCUGCAACUCCUUCUAGGCUGCAGGUAGAAUCUAGAUCGGAAGCUUCAACGUUAUUAGAUCGCUCAUCUACGCCAAUUGCAUUAGAAAAAGAUGAUCGUGAAGAGUUUUUAAAAAGAGAAAAUGAGCUUCAAGAUCAAAUUGCUGAAAAAGAGACUCUAAUUGCGACUGCAGAAAAAAAGCUAAAAGACAUAAAAGAGGAAUUAAGUUAUCUCAAAGAACGGGAUAUCAAAUCUAUUAGGGAGAAUGAAAAAUUGAU | 14 ± 4 | –
4 | GS3928 (nucleic acid) sense: UUGAAGUGGUUAAAAAACAUGUUGAGGAAACAGAAUGGGAAGAAGAACCUUCCAAGAAUGGAAGACUUGAUAUUGAUAUAAUAACCGCGGAAGCAAUGACACUUGCUCAUCAAAUUGCAAGUGGUGAGAAGACUAAAUAUGAUCUCAUCGAUGAAGGUUGGAAUAAAAAUUCAUUCAAGGAUCGCGAUGGCCUUCCUGAUUGGUUUCUGGAUGAUGAGAGUAAACAUGAUAAACCUCAUAGACCUAUCAGUGCUGCCGCUGCAAAUGCUAUAAAAGAAAAGCUGCGAGCCCUGAAUGCUCGACCAAUCAAAAAAGUACGUGAGGCUAAGAGUCGGAAAAAAUUCAAAGCUGCCCAACGACUUGAAAAACUCCGAAAAAAAU antisense: AUUUUUUUCGGAGUUUUUCAAGUCGUUGGGCAGCUUUGAAUUUUUUCCGACUCUUAGCCUCACGUACUUUUUUGAUUGGUCGAGCAUUCAGGGCUCGCAGCUUUUCUUUUAUAGCAUUUGCAGCGGCAGCACUGAUAGGUCUAUGAGGUUUAUCAUGUUUACUCUCAUCAUCCAGAAACCAAUCAGGAAGGCCAUCGCGAUCCUUGAAUGAAUUUUUAUUCCAACCUUCAUCGAUGAGAUCAUAUUUAGUCUUCUCACCACUUGCAAUUUGAUGAGCAAGUGUCAUUGCUUCCGCGGUUAUUAUAUCAAUAUCAAGUCUUCCAUUCUUGGAAGGUUCUUCUUCCCAUUCUGUUUCCUCAACAUGUUUUUUAACCACUUCAA | 15 ± 6 | 9 ± 7
5 | GS3930 (nucleic acid) sense: CUAACGAGUGAUCGAAGCCCAUCUGAAAGAUUUUGAGUUAUGCUUUUACCAACUAUUACAGUAUCUGAGCUCAGUCGCGAGAGUAAAUCCCCGACUCGAUUGGCGUCAAAGAACUCGGCAUCUUGUACAAAUGUCCUUCGAAAUAAUUUUGAUCGGAGUCUUGAAAUUACUCUUUCUCCAACUAUUCUCAGAAUUAAUAUCCGUCCAUAAUUAGCUACAGCACCUAUUGAUAGUAUAAGCCCAAGAGCCCCGAAAAAUUGUUGAUUAUUAAGUUCAAAAAGUGUGUUUCCUUCUGAGUUUUUGGUUGCAAGGUCUAAUAUUUUACCGAUUGAAAAAGGAAUUGCCAUUGAUAUGGAUGAAGAUACUAAUAAAAAGAAAAAUGCCAAACUGAGC antisense: GCUCAGUUUGGCAUUUUUCUUUUUAUUAGUAUCUUCAUCCAUAUCAAUGGCAAUUCCUUUUUCAAUCGGUAAAAUAUUAGACCUUGCAACCAAAAACUCAGAAGGAAACACACUUUUUGAACUUAAUAAUCAACAAUUUUUCGGGGCUCUUGGGCUUAUACUAUCAAUAGGUGCUGUAGCUAAUUAUGGACGGAUAUUAAUUCUGAGAAUAGUUGGAGAAAGAGUAAUUUCAAGACUCCGAUCAAAAUUAUUUCGAAGGACAUUUGUACAAGAUGCCGAGUUCUUUGACGCCAAUCGAGUCGGGGAUUUACUCUCGCGACUGAGCUCAGAUACUGUAAUAGUUGGUAAAAGCAUAACUCAAAAUCUUUCAGAUGGGCUUCGAUCACUCGUUAG | 10 ± 4 | –
6 | GS3937 (nucleic acid) sense: CAUCUCAACGACUUUGUAGAAUAAAUCAUAGUGAGAUACAGGACUGUGUAGAAAUGCCUCACCACAACAUAAAGAUAAGGCAAUUAAAUUAACUAGAUUGUCAAUCAAAAUAUCAAUAUUUUUUAAGCCCCUCAAGUCUGAUGUGUAUGUGGUGAGAAACCGAACAAGAGAAAGCAGUGAUCUAUAUAGUUCAGACCAGUGAUAUUUCAAUCGUGUCCGUGACCGAGAUAGGUAUGAUAAUAUACUAUAAAUGAUACCAAUGCAAAGAAUAUAUAAAUCAACAUCCAGUCGUCGUCUUAGAUUGUGAUUGAUUCCAUCAAGCAUCGCAUCAAGAAGAAUAGCAGCAAUCGAUCUAUCUCCAUGAACAUAAGGAAGGUACGGAGAUUUUUGUCGACAUA antisense: UAUGUCGACAAAAAUCUCCGUACCUUCCUUAUGUUCAUGGAGAUAGAUCGAUUGCUGCUAUUCUUCUUGAUGCGAUGCUUGAUGGAAUCAAUCACAAUCUAAGACGACGACUGGAUGUUGAUUUAUAUAUUCUUUGCAUUGGUAUCAUUUAUAGUAUAUUAUCAUACCUAUCUCGGUCACGGACACGAUUGAAAUAUCACUGGUCUGAACUAUAUAGAUCACUGCUUUCUCUUGUUCGGUUUCUCACCACAUACACAUCAGACUUGAGGGGCUUAAAAAAUAUUGAUAUUUUGAUUGACAAUCUAGUUAAUUUAAUUGCCUUAUCUUUAUGUUGUGGUGAGGCAUUUCUACACAGUCCUGUAUCUCACUAUGAUUUAUUCUACAAAGUCGUUGAGAUG | 12 ± 5 | –
7 | GS3934 (nucleic acid) sense: UCUUCUUCAGUGGUAUGUGCAAGAGAUUGACGUCUAGAUGAACGUGUUGAUGGUGCAGUUACUACAGCAGUAGCUUCAACCGAUUUUCGACUCACUUUUCGCUUGUUUGAAACAGACGAAACUAAAGAAUUUGUGGAACUAGAUUUAGGUUUACGAGUAGUGGACCGUCCCUUACUUGUAUAGACUCUCUUUUUAAGUGUAGAAUCAUUCAAUGGCUGUAAAAAUGAAACUAAAUCUCCACAAAUAGUAGUAGGUGCAUCUGCUGAUAAUGCUUCAGGUAAAUCUAAUCUAGAUCCAAUUUCUGAUGUACUAAGUGAUAUAUUUGAAGAGGUAAUAUUACUUUGUAUUUCAGGUGUCUUUGAGGUCAUCUUUGAUGAAAUUACCAUUAGUUUUU antisense: AAAAACUAAUGGUAAUUUCAUCAAAGAUGACCUCAAAGACACCUGAAAUACAAAGUAAUAUUACCUCUUCAAAUAUAUCACUUAGUACAUCAGAAAUUGGAUCUAGAUUAGAUUUACCUGAAGCAUUAUCAGCAGAUGCACCUACUACUAUUUGUGGAGAUUUAGUUUCAUUUUUACAGCCAUUGAAUGAUUCUACACUUAAAAAGAGAGUCUAUACAAGUAAGGGACGGUCCACUACUCGUAAACCUAAAUCUAGUUCCACAAAUUCUUUAGUUUCGUCUGUUUCAAACAAGCGAAAAGUGAGUCGAAAAUCGGUUGAAGCUACUGCUGUAGUAACUGCACCAUCAACACGUUCAUCUAGACGUCAAUCUCUUGCACAUACCACUGAAGAAGA | 31 ± 5 | 17 ± 6
